Data: US20220041711A1 (NGM BIOPHARMACEUTICALS, published 2022)
Read-outs that look alike come from different tables or passages of the source.

T1: human MARCO expressed on cells (721.221-MARCO, 293T-MARCO) (human, UniProt Q9UEW3 1-520)
T1 construct: also called 721.221 cells expressing MARCO
T1 sequence: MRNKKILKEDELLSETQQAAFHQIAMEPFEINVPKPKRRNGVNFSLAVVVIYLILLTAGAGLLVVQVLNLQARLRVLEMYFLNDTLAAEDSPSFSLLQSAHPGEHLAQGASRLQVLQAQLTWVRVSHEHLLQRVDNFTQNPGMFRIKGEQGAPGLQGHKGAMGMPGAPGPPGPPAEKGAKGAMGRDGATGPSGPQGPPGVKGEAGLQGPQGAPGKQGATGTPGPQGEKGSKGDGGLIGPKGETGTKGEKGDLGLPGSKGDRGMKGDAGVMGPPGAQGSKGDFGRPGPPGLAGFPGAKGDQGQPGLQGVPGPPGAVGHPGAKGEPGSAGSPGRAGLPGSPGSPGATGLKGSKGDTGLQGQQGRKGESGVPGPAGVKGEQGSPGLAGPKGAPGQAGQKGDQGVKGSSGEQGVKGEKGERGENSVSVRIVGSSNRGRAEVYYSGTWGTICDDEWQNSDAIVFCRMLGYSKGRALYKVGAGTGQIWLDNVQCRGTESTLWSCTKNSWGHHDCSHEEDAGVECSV

T2: cyno LAIR-1-ECD (cynomolgus monkey)
T2 construct: Recombinant, expressed in mammalian cells; also called extracellular region of cyno LAIR-1
T2 chain: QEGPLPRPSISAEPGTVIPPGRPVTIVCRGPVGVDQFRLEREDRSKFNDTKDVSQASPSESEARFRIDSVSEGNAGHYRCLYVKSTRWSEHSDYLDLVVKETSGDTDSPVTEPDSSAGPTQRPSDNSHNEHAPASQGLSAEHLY

T3: human LAIR-1-ECD (human, UniProt Q6GTX8 22-165)
T3 construct: Recombinant, expressed in mammalian cells; also called extracellular region of human LAIR-1
T3 chain: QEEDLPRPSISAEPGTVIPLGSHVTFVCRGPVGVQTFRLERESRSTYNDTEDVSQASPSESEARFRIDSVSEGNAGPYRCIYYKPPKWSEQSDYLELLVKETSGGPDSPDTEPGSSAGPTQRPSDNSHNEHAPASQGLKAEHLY

T4: mouse LAIR-1 (form in the assay not stated) (mouse, UniProt Q8BG84 22-144, limits assumed)
T4 sequence: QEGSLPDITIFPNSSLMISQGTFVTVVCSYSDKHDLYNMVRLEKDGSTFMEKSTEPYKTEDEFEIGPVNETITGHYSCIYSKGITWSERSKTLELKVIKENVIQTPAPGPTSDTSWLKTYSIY

T5: human LAIR-1b (alternative isoform of human LAIR-1) on transfected 293T cells (human, UniProt Q6GTX8 22-287)
T5 chain: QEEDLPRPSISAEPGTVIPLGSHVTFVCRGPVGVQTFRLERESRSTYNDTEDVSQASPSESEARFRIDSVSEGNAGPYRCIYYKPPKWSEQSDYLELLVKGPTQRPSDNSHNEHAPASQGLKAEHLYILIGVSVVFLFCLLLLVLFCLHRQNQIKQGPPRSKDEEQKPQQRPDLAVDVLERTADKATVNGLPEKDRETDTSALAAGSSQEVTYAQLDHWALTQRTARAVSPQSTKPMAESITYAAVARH

B1: human LAIR-1-Fc (Fc fusion)
chain: QEEDLPRPSISAEPGTVIPLGSHVTFVCRGPVGVQTFRLERESRSTYNDTEDVSQASPSESEARFRIDSVSEGNAGPYRCIYYKPPKWSEQSDYLELLVKETSGGPDSPDTEPGSSAGPTQRPSDNSHNEHAPASQGLKAEHLY
notes: also called biotinylated human LAIR-1-Fc; not shown: a Fc region

Legend:
[1] = molecular target: T1, human MARCO expressed on cells …; assay: flow cytometry, Fc protein at 10 µg/mL on 721.221 cells expressing MARCO, PE anti-Fc secondary
[2] = molecular target: T6, cyno LAIR-1-CD3ζ chimeric receptor on NFAT-GFP reporter cells (cynomolgus monkey; human); assay: cell-based or functional assay
[3] = molecular target: T7, human LAIR-1-CD3ζ chimeric receptor on NFAT-GFP reporter cells (human, UniProt P20963 31-164, limits assumed); assay: cell-based or functional assay
[4] = molecular target: T6, cyno LAIR-1-CD3ζ chimeric receptor on …; assay: cell-based or functional assay; remark: listed apart in the source
Target sequence in this assay (P20963 other isoform, or with tags, fused parts or gaps mutant limits assumed): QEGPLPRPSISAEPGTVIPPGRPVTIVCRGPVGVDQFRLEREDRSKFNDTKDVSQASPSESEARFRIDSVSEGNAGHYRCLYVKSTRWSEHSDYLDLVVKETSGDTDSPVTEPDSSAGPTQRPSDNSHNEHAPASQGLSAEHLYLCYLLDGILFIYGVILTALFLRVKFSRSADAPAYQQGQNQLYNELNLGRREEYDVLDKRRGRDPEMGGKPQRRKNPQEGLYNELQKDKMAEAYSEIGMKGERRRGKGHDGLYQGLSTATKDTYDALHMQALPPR

[5] = molecular target: T7, human LAIR-1-CD3ζ chimeric receptor on …; assay: cell-based or functional assay; remark: listed apart in the source
Target sequence in this assay (P20963 other isoform, or with tags, fused parts or gaps mutant limits assumed): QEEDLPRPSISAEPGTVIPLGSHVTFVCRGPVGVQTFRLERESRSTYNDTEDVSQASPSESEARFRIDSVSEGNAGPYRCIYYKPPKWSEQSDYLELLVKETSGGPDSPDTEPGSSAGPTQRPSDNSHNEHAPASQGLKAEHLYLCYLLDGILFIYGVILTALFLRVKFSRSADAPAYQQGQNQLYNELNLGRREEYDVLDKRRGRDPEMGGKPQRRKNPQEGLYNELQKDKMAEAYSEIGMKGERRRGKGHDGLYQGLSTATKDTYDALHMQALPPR

[6] = molecular target: T7, human LAIR-1-CD3ζ chimeric receptor on …; assay: cell-based or functional assay; remark: listed apart in the source
human LAIR-1-Fc = molecular target: B1; assay: ELISA blocking: plate coated with 5 µg/mL human collagen type 1, antibody titrated, 1 µg/mL biotinylated human LAIR-1-Fc, streptavidin-HRP, OD650
[7] = molecular target: T6, cyno LAIR-1-CD3ζ chimeric receptor on …; assay: cell-based or functional assay; remark: listed apart in the source
[8] = molecular target: T7, human LAIR-1-CD3ζ chimeric receptor on …; assay: cell-based or functional assay; remark: listed apart in the source
cyno LAIR-1-ECD = molecular target: T2, cyno LAIR-1-ECD; assay: SPR (Biacore) as in Example 2
human LAIR-1-ECD = molecular target: T3, human LAIR-1-ECD; assay: SPR (Biacore) as in Example 2
[9] = molecular target: T4, mouse LAIR-1 (form in the assay not …); assay: not described
[10] = molecular target: T5, human LAIR-1b (alternative isoform of …); assay: flow cytometry on cells expressing human LAIR-1b, PE anti-human Fc secondary, MFI (panel Human LAIR1 (Truncated) Cells)
[11] = molecular target: T7, human LAIR-1-CD3ζ chimeric receptor on …; assay: cell-based or functional assay; remark: listed apart in the source
[12] = molecular target: T7, human LAIR-1-CD3ζ chimeric receptor on …; assay: flow cytometry on human LAIR-1 reporter cells, PE anti-human Fc secondary, MFI (panel Human LAIR1 Cells)
[13] = molecular target: T6, cyno LAIR-1-CD3ζ chimeric receptor on …; assay: flow cytometry on cyno LAIR-1 reporter cells, PE anti-human Fc secondary, MFI (panel Cynomolgus Monkey LAIR1 Cells)

binding result [1]	IC50 (read off the curve): % GFP+ cyno LAIR-1 reporter cells co-cultured with bEnd.3 cells [2] [nM]	IC50 (read off the curve): % GFP+ cyno LAIR-1 reporter cells on coated MARCO-his [4] [nM]	IC50 (read off the curve): % GFP+ cyno LAIR-1 reporter cells on coated collagen 1 [4] [nM]	IC50 (read off the curve): % GFP+ cyno LAIR-1 reporter cells on coated collagen 4 [4] [nM]	IC50 (read off the curve): % GFP+ human LAIR-1 reporter cells on coated MARCO-his [5] [nM]	IC50 (read off the curve): % GFP+ human LAIR-1 reporter cells on coated collagen 1 [5] [nM]	IC50 (read off the curve): % GFP+ human LAIR-1 reporter cells on coated collagen 4 [5] [nM]	IC50 (read off the curve) (human LAIR-1-Fc) [nM]	IC50 (read off the curve): % GFP+ cyno LAIR-1 reporter cells on polymerized collagen matrix [7] [nM]	Kd (cyno LAIR-1-ECD) [nM]	koff (cyno LAIR-1-ECD) [s⁻¹]	kon (cyno LAIR-1-ECD) [M⁻¹ s⁻¹]	Kd (human LAIR-1-ECD) [nM]	koff (human LAIR-1-ECD) [s⁻¹]	kon (human LAIR-1-ECD) [M⁻¹ s⁻¹]	Binder	further results
binds																B1	
	~0.2	~0.2	~0.4	~0.2	~0.06	~0.04	~0.03	~3	~0.2	16	0.0043	280000	0.9	0.00069	770000	anti-LAIR-1 antibody ch62G10 (antibody, V domains shown, The prefix 'ch' is not defined) VH: EVQLVETGGGLVQPKGSLKLSCATSGFTFNINAMNWVRQAPGKGLEWVARIRTKNNNFATYYADSVKDRFTISRDDSQSMLYLQMNNLKTEDTAMYYCVRGPYFDYWGQGTTLTVSS VL: DIQMTQSPASQSASLGESVTITCLASQTIGTWLAWYQQKPGKSPQLLIYAATSLADGVPSRFSGSGSGTKFSFKISNLQAEDFVTYYCQQLYSTPYTFGGGTKLEIK	IC50 (read off the curve): % GFP+ human LAIR-1 reporter cells co-cultured with bEnd.3 cells [3]: ~0.04 nM; IC50 (read off the curve): % GFP+ human LAIR-1 reporter cells on coated MARCO-his [6]: ~0.07 nM; IC50 (read off the curve): % GFP+ human LAIR-1 reporter cells on coated collagen 1 [6]: ~0.1 nM; IC50 (read off the curve): % GFP+ human LAIR-1 reporter cells on coated collagen 4 [6]: ~0.1 nM; IC50 (read off the curve): % GFP+ human LAIR-1 reporter cells on polymerized collagen matrix [8]: ~0.03 nM
binds																LAIR-2-Fc (Fc fusion, LAIR-2 soluble protein fused to a Fc region; also called human LAIR-2-Fc; not shown: a Fc region) QEGALPRPSISAEPGTVISPGSHVTFMCRGPVGVQTFRLEREDRAKYKDSYNVFRLGPSESEARFHIDSVSEGNAGLYRCLYYKPPGWSEHSDFLELLVKESSGGPDSPDTEPGSSAGTVPGTEASGFDAP	
	~0.1	~0.06	~0.1	~0.08	~0.02	~0.02	~0.02	~3	~0.09	4.3	0.0016	390000	0.26	0.0006	2.3e+06	humanized anti-LAIR-1 antibody Hz47H1.v4 (antibody, human IgG1, kappa, N297G, V domains shown, Humanized 47H1 with reengineered VH CDR2 and VL CDR2) VH: EVQLVESGGGLVQPGGSLRLSCAASGFTFNINAMNWVRQAPGKGLEWVARIRTKNYNYATFYADSVKDRFTISRDDSKNSLYLQMNSLKTEDTAVYYCVRDRAGFFAYWGQGTTVTVSS VL: DIQMTQSPSSLSASVGDRVTITCLASQTIGTWLGWYQQKPGKAPKLLIYAATSLAEGVPSRFSGSGSGTDFTLTISSLQPEDFATYYCQQLYSTPLTFGGGTKVEIKR	binding result [9]: no binding; EC50 (read off the curve) [10]: ~2 nM; IC50 (M), reporter cell assay, ligand COLEC12 [11]: 1.2e-11 M; IC50 (M), reporter cell assay, ligand Collagen 1 [11]: 3.2e-11 M; IC50 (M), reporter cell assay, ligand Collagen 4 [11]: 3.2e-11 M; IC50 (M), reporter cell assay, ligand MARCO [11]: 3.2e-11 M; IC50 (M), reporter cell assay, ligand MBL [11]: 4.2e-11 M; IC50 (M), reporter cell assay, ligand Polymerized Collagen Matrix [11]: 3e-11 M; IC50 (M), reporter cell assay, ligand SPD [11]: 2e-11 M; IC50 (M), reporter cell assay, ligand Tumor Cell Collagens [11]: 1.6e-11 M; EC50 (read off the curve) [12]: ~0.2 nM; EC50 (read off the curve) [13]: ~1 nM
